According to publication PMC2700083, “A covalent peptide inhibitor of RGS4 identified in a focused one-bead, one compound library screen” (BMC Pharmacology, 2009):

Key:
Assay in all cases: FCPIA (flow cytometry protein interaction assay, Luminex beads); Gαo affinities for RGS4Δ51N wild type and mutants on beads, with AMF
[1] = biological target: MBP-RGS4Δ51N -7C mutant (all 7 cysteines removed) (UniProt P49799)
[2] = biological target: MBP-RGS4Δ51N A132C in the -7C (UniProt P49799)
[3] = biological target: MBP-RGS4Δ51N A148C in the -7C (UniProt P49799)
[4] = biological target: MBP-RGS4Δ51N A71C in the -7C (UniProt P49799)
[5] = biological target: MBP-RGS4Δ51N A95C in the -7C (UniProt P49799)
[6] = biological target: MBP-RGS4Δ51N with no Cys in the C-terminus (UniProt P49799)
[7] = biological target: MBP-RGS4Δ51N with no Cys in the RGS domain (UniProt P49799)

Chain of Gαo, Alexa Fluor 532-labeled (P59215 whole entry): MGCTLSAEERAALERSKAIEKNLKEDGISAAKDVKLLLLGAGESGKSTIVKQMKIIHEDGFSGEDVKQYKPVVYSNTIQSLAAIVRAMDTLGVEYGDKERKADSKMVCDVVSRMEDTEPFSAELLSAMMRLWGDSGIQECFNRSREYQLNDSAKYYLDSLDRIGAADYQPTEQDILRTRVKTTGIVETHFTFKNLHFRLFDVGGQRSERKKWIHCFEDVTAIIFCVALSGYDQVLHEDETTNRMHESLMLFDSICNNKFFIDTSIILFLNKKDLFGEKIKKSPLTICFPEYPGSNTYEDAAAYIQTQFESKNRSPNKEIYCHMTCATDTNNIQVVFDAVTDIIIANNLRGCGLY

Gαo, Alexa Fluor 532-labeled (from UniProt P59215 1-354) (natural protein)
Kd [1]: 8.3 nM | Kd [2]: 12.5 nM | Kd [3]: 5.7 nM | Kd [4]: 9.2 nM | Kd [5]: 12 nM | Kd [6]: 5 nM | Kd [7]: 3.9 nM
